Laboratory results: paper PMC8280134

Biological target: GII.4 P-domain (crystallisation construct) (human norovirus GII.4)
Experiment: crystal structure; P-domain and Fab mixed 1:1.5, complex isolated by gel filtration; crystals in 0.1 M BIS-TRIS propane pH 8.5, 0.2 M KSCN, 20% w/v PEG 3350, 20 °C

## GII.4 P-domain (crystallisation construct) (domain or fragment)
  stoichiometry N: 2
